Data from a protein production outcome set (Wang et al. 2014).

Test: label from the status in PepcDB records

## MEKNVTPMIRQYLDIKKKYKDAVLFFRVGSFYEMFFDDAIEVSKLLNLTLTKRENVPMCGVPYHTSKEYIRKLILFDKKVAICEQASNSTSGGPLEREVVEVITPGVIIDEDFLNDDINNYLVAISDYKDYYSFSYIDLSTSSLGIMFYENGFFEKLKRDLEKYSPKEIIVSENFYYEYSEKLNLSRFLINRVPTWHLDKDIAIKTIKEHFNILGLSSLGFDEEKPYYISIFLIINHIKNNLKNLLSNIDKIDINNDSSYMFLDDVTQVNLELVKNNNDFSSQYSLYSVLNDCKTAMGKRLLREFILNPILNISEINTRLDHVEFFCKNISLTVTLRETFINIWDIERIISRIQMKRYIKKDFLFIEKALSVFFTVKKLFDKHNFDYWNFDKFEEDSISKVYFLINSAISSAPDELIKRGYDLKLDNLKDLKINANKYIDQYLESERLLSKINNLKIRKTNNRGLFFEVTKSNYAQVPPHFMESQALNSSKRYKTEKLISLEVDINNAEDNVVAFEQEIFDEIASNVVMHNKVLKKVAEFFAYIDLVVNFGYLAKKNEYKRPVLTSGKEILLEKSRHPVVEHYTKNTEIFTENFVRINKEKYFCLITGPNMAGKSTYLRQVALITLMAHIGSFVPASKALIGITDKIFCRIGASDNIAKGESTFLVEMNETANILRNATEKSLIIMDEVGRGTSTNDGLAIAYSIIEYILEYIKARSLFATHFHELSSINHQAFINLSMKIEKQGNDLVFLREVEEKPSLNSYGIYVARIAGLPLRVIDRANVILESLVGREGNSCLEFLPHVSSDGNDKEILKNDTDIHIKLNEYLELKNFISNIDINNITPFQSIELLNQIVLKVISQSS
  protein production: failed

## MEKRLDYITDLMALGPTANARTIQRRQTAHRLAIAEAWQVKPGEKILEIGCGQGDLSAVLADQVGSSGHVTGIDIASPDYGAPLTLGQAWNHLLAGPLGDRLTVHFNTNLSDDLGPIADQHFDRVVLAHSLWYFASANALALLFKNMAAVCDHVDVAEWSMQPTALDQIGHLQAAMIQGLLYAIAPSDVANIRTLITPDTLAQIAHDNTWTYTAGTIVEDPTLDDAHWEIATTNALLTELKLSTDLRDRVKPLLEAMSHNGTASLATFTGRITF
  protein production: not failed

## MEKRQDNNEIERRILKYEQYVKEHPKKAYGYYCLGRLHMMDGKYKLAEEYFKKSLAVDGNYTFSIIGLIEACVFRRKFLKAVYLFSKNRQKIIDKYIYRVKLVRGVSSFYSKSGFFRTEAKDFLSQLSLKNSIRSIKKLVDSEANNIVLKLILCMYYLNFGEKSFYIIQLFKTCIYWDGLEDSFRWALIRRLSEFGEKLYYDANIARKFATVPDASCTDEYVDLIFSSALDREKGGRMADIYRTAEKYNKNISPRLIWRYVKWSNENSFYDPSVYDCCKKLVDMGWMDSVVADTMLKFRERNAVKLGDETERALRLFGYMD
  protein production: failed

## MEKSLETVPGLDLSGEDIEMYYQYVRFVDRFLRFNRNYQIEYFKLSYPGDGSSEREVDLLKRWIDTVIQLKVKDLDFFDYSWEWGFDNFQLPSTIYICESLVSLKLSTVTLPSVKSVSLPFLRVLKLGAVKFADHLDLETLISGCTALETLAIRFFDRVQVLQVSSQSLLSFTHVAPKLVFTHAVRKPLAEKDLSIVIDAPRLEYLKLSDHQTSSFIIKNPGSLVAVDIDINLSSGFDSRNMIRDFLVGISSVKNMTISSIILKFYDYRFKMLPTFLEICPNLKSLILKSTEELGIKESSMFSGPQDFLPSLEYVEMKMPLKKGLLLEIRMLVGYFLEKATILKKLTLCLDDYRKRKESLIPRILAIPRISTSCEVVVL
  protein production: failed

## MEKSLLVIVRHKPGRTRLLIRALQSINDQTFKKINIIIFCMEEELKCHNVDDFYLKELSNIYSVIYDENCIFNAIKMSESNYLCFMDDDDSWAPEYVSRLLSVLANIQSTYSSVNAIACHTNKVAEIAENNRIIINSTQPWNHYLNAGPVSFDVIYYRNSIPLSSCLFDRNSVIDVIESHKLSSPAFFWPFFIHYLAENDVWILPEALAFYHFRENDDFEFGNYTVINNELFDIECKIAENKMMRSIDDSSLLNVLLSNIANNSLFHKISYIENKIK
  protein production: failed

## MEKSNLYKVDEFGVKNYNYGILAILSFVLFAFINISLGYVTFVAETAVEGSPVKNYADAFWLMLMSSTTIGFGDVYPITLEGRIAVFTMFILGVGILGGVGAVFANKIFGFADTNIKNRELRQQNEEILLQNDKIYQKLTALEDKLEAFNRETK
  protein production: failed

## MEKSNVFLLSILLMASLFSISHAFQLWGYAIDRVSIRGVVYCSLDGDPSAPPVSNATVYIECPGGSNSTLAQAVTNQVGVFTLPWLMFIANYAIGASRQ
  protein production: failed

## MEKVHLYWNLRYNCWFLVSVEHLWYSQGKVPGVHGFVILPVFLTLLEQPFSTTKKDITQLRSPSSESLSSSNAVNYRAIRGSHSYFGIYGI
  protein production: failed

## MEKVLTDLDRVNIAKQEYELGSQLDTLVKIMSQDKVLPIGKVAHVQDGGKETGEQIYTITPNGTLDKPEDVKEVTVLFKGSTAPFGGDDWKTDWFKNDIPIASKLLLKKFGSQSVSHKQGTKQLEQSAHLLKEVMNKYPNAKISVYGHSLGSMNAQYAIAELDDNQIYRVQGAWIYNGPNLYSILTDKQKEQVDKIKGVVNNYVDSKDKIGIGYPKEGSDNAVGIVKIVDSKAVSGGSWVANFTNQHIWGGYQYNPDGSLKLAEDKFAYKENYSVVHTNVNQRMHAIKAKLSSFKSTGKEVSKNQAIFLDSQQAKVISSGLVTISKEAVEEVKKVEQKAVAKAEELYQSLKVAPTGVTELSPQELEEAYAQSGVSYASIVGEAQTFFSNKTQAAESISHAYVELENQINKGVEAMLRQDSNLSGEFKQWH
  protein production: failed

## MEKVTLIATATMGLEALVAREVKDLGYEDVKVENGKVTFTSDVAAIPRANLWLRTADRVKLKVGEFKALTFDELFEKTKSLPWADIIPVHAEFPVIGRSVKSKLFSVSDCQAIVKKAVVESMKKRYKRGWFDENGPLYRIEVALHKDIATLTIDTSGTGLHKRGYRYLHSQAPLKETLAAAIIMLSHWKSDRPFADPFCGSGTIPIEAAMIGQNIAPGFNREFVSEQWHWIGSEHWDRAREEVEDMANYDQPLDILGSDIDHRMVELAQNNAMEAGFGDLISFKQMQVTDFRHKEEYGILIGNPPYGERIGEREEVEKMYQKMGEVFREHLETWSIYILTSHEGFEELYGKRATKKRKLYNGNIKTDYYQFFGPRPPRHPEGSQQ
  protein production: failed

## MEKYSQVIFDKNTVEFVTVAAEFCGFLERARDMKRYDFVDTALKILPLLYLKATLLPPCEPIGEDEPETFVTEEDYELIRRAIAGVLGAKDDYLEVFLPDMVYSDTPIKKCISEDLADIYQDLKDFISVFQLGLNETMNDSLVVCKEHFREFWGQRLVNTMRALHDVKYSPLEHHHHHH
  protein production: not failed

## MELGLYTFADVNPNPADGRGPEGARRLRELLEEIELADQVGLDVFGLGEHHRPDYVVSSPSTVLAAAAVKTKNIRLTSAVSVLSSDDPVRVFQQFSTVDLLSNGRAEIMAGRGSFIESYPLFGYDLEDYDVLFAEKLDLLLALREQEVVTWSGTKHPAINGRGVYPRPLQERLPVWIAVGGTPQSVARAGAMGLPVALAIIGGEYRRFAPLFDLYHEAARRAGQEKTKLRTSINVHGFIADTTDKAADQFYGPQAEVMNRIGRERGWGPTNRAHFDAARGPEGNLFLGEPELVAEKIIKAHGVFKNDRFLLQMAIGLMPHDQIMRGIELYGTKVAPLVRKELTGSADPVKATA
  protein production: not failed

## MELKQSLSTHLEAEKPLRRYGAVEETAWKTERLGRNQLDIISMAETTMMPEEIELEMAKIQRLREVLVRRESELRFMMDDIQLCKDIMDLKQELQNLVAIPEKEKTKLQKQREDELIQKIHKLVQKRDFLVDDAEVERLREQEEDKEMADFLRIKLKPLDKVTKSPASSRAEKKAEPPPSKPTVAKTGLALIKDCCGATQCNIM
  protein production: failed

## MELPEKPQLYLITPPEFELSSFPDVLARVLDTHKVACVRLELAARDEDTVSRAADALREVTHARDIALVLSDHSVLADRLGLDGVHLSDAARSVRETRKLLGEDAIIGSFCGTSRHDGMSAGEAGADYICFGPVAASSLGDGSYVAQEVFEWWSEFIEVPVVAEGGLDAARIAQLTPFTDFFAFGQEVWSAEYPAQRLGELLEAMG
  protein production: failed

## MELPVVVQQALGDNAPGVSFRSVSQIDTGHLLRMVLLSDDQGNLQAICRRNDMLDLEALNKRLGRDLRMMQRREQVRVRQKAGLQELPALPSLTGWPTVVDRRVDELEAVALELGEQDLGLMMPAEDFRQLTAKAARHDFAVDTANISVNLDNHAADRDQLHSAIKRFTGLRIQQRLEDTLELPPLPETAQRIIHLRVNPNAVMGDLVDVVESDPSLAAQVVSWASSSFYAAAGRVHSVHDAVSRVLGFDLVMNLAMGLALGRALKHPQDHPDGYVDYWQQAIWQAQSAGILASMMPRGQRPLFGLAYLAGLLHNFGHLVLAQVFPPHFKLVCRSLEVSPHIDSSVIEHYLLGITREQIAAQLMENWGMPDEVTLAIRYQKNPAYDGPHNVYARLLWLGRQLLTERGVALGAGESATQAVYDELGLDRELVQEQFDELVRRKDSIMAMAGMMSQGG
  protein production: not failed

## MELQLAIDLLNKEEAAKLAQKVEEYVDIVEIGTPIVINEGLPAVQHLNENINNAKVLADLKIMDAADYEVSQAVKYGADIVTILGVAEDASIKAAVEEAHKHGKALLVDMIAVQNLEQRAKELDEMGADYIAVHTGYDLQAEGKSPLDSLRTVKSVIKNSKVAVAGGIKPDTIKDIVAEDPDLVIVGGGIANADDPVEAAKQCRVAIEGK
  protein production: failed

## MELREWQSKIAEKIVEALRNNFLVSLQAPTGSGKTLFALYTALKVKPKVAFVVRTHNEFFPVYRELSLHFKDKKYGFLVGKSSACVFSSSDVDAQDIYCNGCEIFNASAVTVTDSPKVSLNKLKEEGKKLGFCPYYSLLETIKTADVILLTYPYLFIPWLRESLDINWEDYVVIVDEAHNIENVSNIEEKKLNKRIIEMAISQSHSQNVKVILERLKENVEKAVYSEDKYILIEKDKLDNILPSNEEIEILSEEYDEIRKIMIKNKTVSRNYLGSILRFFDLVNDEGIRVFSYSGSLIAKYIIPSYFTDILNDEKITYMLMSGTMQPLDYLRNIIGIKRKILYIDAEKVMKKRLTGTYECLISIDVTTTYSLRSEQMARKYASYLLKIFYNSRRHVLAIFPSYEFMRIVSKFLNIRYLAEDTETSIEEIMSNLKKEKTIIMGIARGKLAEGIEIVENGSSLISDVAMVGIPYPPIDDYLKIRVEEISKILKKDISNELISIQALIAVKQSIGRAIRGPTDNATIWLLDKRYDSLWWKKELNCLNARKIKL
  protein production: failed

## MELSAVGERVFAAEALLKRRIRKGRMEYLVKWKGWSQKYSTWEPEENILDARLLAAFEEREREMELYGPKKRGPKPKTFLLKAQAKAKAKTYEFRSDSARGIRIPYPGRSPQDLASTSRAREGLRNMGLSPPASSTSTSSTCRAEAPRDRDRDRDRDRERDRERERERERERERERERERGTSRVDDKPSSPGDSSKKRGPKPRKELPDPSQRPLGEPSAGLGEYLKGRKLDDTPSGAGKFPAGHSVIQLARRQDSDLVQCGVTSPSSAEATGKLAVDTFPARVIKHRAAFLEAKGQGALDPNGTRVRHGSGPPSSGGGLYRDMGAQGGRPSLIARIPVARILGDPEEESWSPSLTNLEKVVVTDVTSNFLTVTIKESNTDQGFFKEKR
  protein production: failed

## MELSFRIWLGGLGMLISLLILYFKAVPELEEFHKNCTLKQNWEQPFKKVKNLTLILSISLLSIIGFFLMFINLVNINPI
  protein production: failed

## MELVIILLALSLLMFVAYRGFSVILFAPIFALFAVFLTEPSYVLPFFSNIFMEKMVGFIKLYFPVFLLGAIFGKVVEMSGIADSIAKTIIELVGEKRTILAIVLMGAILTYSGVSVYVVVFAVYPFAAKLFRQANIPKRLIPGTIVLGAVTFTMDALPGSPQIQNVIPTTFFKTDIYAAPILGIVGAIFVLTVGLLYLESRRKKAKAEGEGYFGFNDGNTEMAASLQVEQKNMPLTNNIEITRAQQLITFIPLILVGVMNKVFTIMIPKWYPSGFDFSAIGMKAFGKVELSAVVGIWSVELALIIGILTTLLLYWKRVVTGFQAGLNTSIGGALLATMNTGAEFGFGGVIAALPGFAIMRDGISATFTNPLVNGAVTTNILAGITGSASGGMGIVLSAMGDKFIAAANQFDIPLEVMHRIVSMASGGMDTLPHNGAIITILTVTGLTHKQSYKDIFAITILKTVAVFLVIAFYTLTGLY
  protein production: failed
